Reference: patent US20250163138A1 (Alexion, published 2025)

Assays:
[1] = molecular target: T1, human serum albumin (human, UniProt P02768 25-609); test: SPR (Biacore 3000), biotinylated albumin on CAP chip, pH 6.0
T1 construct: also called HSA; human albumin
Experimental: (§1) Biotinylated albumin was captured onto a CAP chip saturated with Biotin CAPture reagent containing deoxyribooligonucleotides (obtained from GE Healthcare). Concentrations of purified VHH domains were injected for 5 minutes at a flowrate of 50 μL/min. Three concentrations were assessed per VHH domain. Bound analyte was allowed to dissociate for 600 seconds. The chip surface was regenerated after each concentration by injecting 6 M guanidine HCl/0.25 M NaOH for 2 minutes at 10 μL/min. Kinetics were determined at pH 7.4 and pH 6.0 in HBS-EP buffer using a 1:1 Langmuir model (local Rₘₐₓ and constant RI) and double reference subtraction (subtraction of a buffer concentration cycle from the sample concentration cycle and subtraction of a parallel reference flow cell).

[2] = molecular target: T2, Cynomolgus monkey serum albumin (cynomolgus monkey, UniProt A2V9Z4 25-608); test: as above
T2 construct: also called CSA; cynomolgus albumin
Experimental: as §1

[3] = molecular target: T1, human serum albumin; test: SPR (Biacore 3000), biotinylated albumin on CAP chip, pH 7.4
Experimental: as §1

[4] = molecular target: T2, Cynomolgus monkey serum albumin; test: as above
Experimental: as §1

[5] = molecular target: T3, human complement protein C5 (human, UniProt P01031 19-1676); test: SPR (Biacore)
T3 construct: Native C5 is a two-chain protein made from one precursor; also called hC5; human C5

[6] = molecular target: T4, cynomolgus monkey (cyno) complement protein C5 (cynomolgus monkey, UniProt A0A2K5U1T1 19-1676); test: SPR (Biacore)
T4 construct: also called cC5; cyno C5

[7] = molecular target: T1, human serum albumin; test: BLI (Octet HTX), VHH-His on Penta-His sensors, 100 nM albumin
Text: VHH sequences were first analyzed by SDS-PAGE and Coomassie staining to determine approximate concentration relative to a known standard. Supernatant concentrations were then normalized and subjected to biolayer interferometry on an Octet HTX (Pall/ForteBio). Penta-His sensors were exposed to kinetics buffer for 60 seconds to establish baseline measurements. The sensors were then loaded with VHH-His containing supernatants for 300 seconds before a second baseline was established in kinetics buffer over 120 seconds. Tips were then incubated with 100 nM HSA or CSA in kinetics buffer for 600 seconds and dissociation measured over an additional 600 seconds.

[8] = molecular target: T3, human complement protein C5; test: SPR (Biacore), pH 6.0
[9] = molecular target: T4, cynomolgus monkey (cyno) complement …; test: SPR (Biacore), pH 6.0
[10] = molecular target: T3, human complement protein C5; test: SPR (Biacore), pH 7.4

Binder | Kd [5] [nM] | koff [5] [s⁻¹] | kon [5] [M⁻¹ s⁻¹] | Kd [6] [nM] | koff [6] [s⁻¹] | kon [6] [M⁻¹ s⁻¹] | binding result [7] | other results
MSA21 VHH domain (VHH, Published comparator (WO 2004/062551 A2); also called ADL021) VHH: QVQLQESGGGLVQPGGSLRLSCEASGFTFSRFGMTWVRQAPGKGVEWVSGISSLGDSTLYADSVKGRFTISRDNAKNTLYLQMNSLKPEDTAVYYCTIGGSLNPGGQGTQVTVSS |  |  |  |  |  |  |  | Kd [1]: 5.46 nM; koff [1]: 0.00181 s⁻¹; kon [1]: 330000 M⁻¹ s⁻¹; Kd [2]: 5.47 nM; koff [2]: 0.00153 s⁻¹; kon [2]: 280000 M⁻¹ s⁻¹; Kd [3]: 3.49 nM; koff [3]: 0.00393 s⁻¹; kon [3]: 1.13e+06 M⁻¹ s⁻¹; Kd [4]: 3.85 nM; koff [4]: 0.00216 s⁻¹; kon [4]: 561000 M⁻¹ s⁻¹
LCP0296 (VHH, llama anti-C5 VHH, tested as VHH-His fusion; not shown: His-tag) VHH: EVQLVESGGGVVQAGDSLTLTCTAPVGTISDYGMGWFRQAPGKEREFVASISWGGMWTDYADSVKGRFTISRDNDKNAVYLRMNSLNAEDTAVYYCGRGRMYRGIGNSLAQPKSYGYWGQGTQVTVSS | 0.417 | 3.9e-05 | 93400 | 1.55 | 0.000106 | 68400 |  | 
LCP0123 (VHH, llama anti-C5 VHH, tested as VHH-His fusion; not shown: His-tag) VHH: EVQLVESGGGLVQAGGSLTLSCAMSGGTRPFEDYVMAWFRQATGKEREFVATITWMGETTYYKDSVNGRFAISRDNAENTVALQMNSLEPEDTAVYFCAAHSRSSFSTSGGRYNPRPTEYDYWGQGTQVTVSS | 1.99 | 0.000216 | 108000 | 3.8 | 0.000381 | 100000 |  | 
LCP0136 (VHH, llama anti-C5 VHH, tested as VHH-His fusion; not shown: His-tag) VHH: EVQLVESGGGLVQPGESLRLSCAISGFAFTDVGMSWVRQAPGKGLEWVSSISSGSSITTYSDSVKGRFTISRDNARNTLFLQMNSLKPEDTAVYYCGRYYCTGLGCHPRRDSALWGQGTQVTVSS | 1.81 | 0.000882 | 486000 | 0.318 | 0.000251 | 789000 |  | 
HAS040 (VHH, anti-albumin VHH-His; also called HAS40) VHH: QVQLNESGGGMVQAGGSLRLSCAASGRTVSNYAAGWFRQAPGKEREFVAAINWNKTTTYADSVKGRFIISREYAKNTVALQMNSLKPEDTAVYYCAAVFRIVAPKTQYEYDYWGQGTQVTVSS |  |  |  |  |  |  |  | Kd [1]: 0.466 nM; koff [1]: 0.000208 s⁻¹; kon [1]: 445000 M⁻¹ s⁻¹; Kd [2]: 0.764 nM; koff [2]: 0.000281 s⁻¹; kon [2]: 368000 M⁻¹ s⁻¹; Kd [3]: 0.341 nM; koff [3]: 0.00044 s⁻¹; kon [3]: 1.29e+06 M⁻¹ s⁻¹; Kd [4]: 0.539 nM; koff [4]: 0.000562 s⁻¹; kon [4]: 1.04e+06 M⁻¹ s⁻¹
HAS041 (VHH, anti-albumin VHH-His; also called HAS41) VHH: QVQLIESGGGLVQAGGSLGLSCAASGRPVSNYAAAWFRQAPGKEREFVAAINWNKTATYADSVKGRFTISRDNAKSTVALQMNSLKPEDTAVYYCAAVFRVVAPKTQYDYDYWGQGTQVTVSS |  |  |  |  |  |  |  | Kd [1]: 1.04 nM; koff [1]: 0.000387 s⁻¹; kon [1]: 373000 M⁻¹ s⁻¹; Kd [2]: 2.37 nM; koff [2]: 0.000739 s⁻¹; kon [2]: 312000 M⁻¹ s⁻¹; Kd [3]: 0.461 nM; koff [3]: 0.000566 s⁻¹; kon [3]: 1.23e+06 M⁻¹ s⁻¹; Kd [4]: 1.15 nM; koff [4]: 0.00123 s⁻¹; kon [4]: 1.07e+06 M⁻¹ s⁻¹
HAS038 (VHH, anti-albumin VHH-His) VHH: QVQLVESGGGLVQPGGSLRLSCTGSGHSFSTYTVGWFRQAPGEERKFVASISWSGEVTLYGDSVKGRFTISRDNRKKTVYLQMHSLKPEDSAIYYCAAKRGGRPTDSSDDYFYWGQGTQVTVSS |  |  |  |  |  |  | binds | 
LCP0143 (VHH, llama anti-C5 VHH, tested as VHH-His fusion; not shown: His-tag) VHH: EVQLVESGGGLVQAGGSLRLSCAAPEMGATINVMAWYRQAPGKQRELVARLPLDNNIDYGDFAKGRFTISRDITRNTVYLQMNNLKPDDTAVYYCNVLLSRQINGAYVHWGQGTQVTVSS | 0.082 | 5.66e-05 | 691000 | 0.167 | 0.000124 | 741000 |  | 
CRL0499 (bispecific antibody, anti-albumin VHH / (G4S)3 / anti-C5 VHH fusion, purified by Protein A; also called CRL0499 (HSA/C5)) EVQLLESGGGLVQPGGSLRLSCAASGFTFRSFGMSWVRQAPGKGPEWVSSISGSGSDTLYADSVKGRFTISRDNSKNTLYLQMNSLRPEDTAVYYCTIGGSLSRSSQGTLVTVSSGGGGSGGGGSGGGGSEVQLVESGGGLVQPGGSLRLSCAASGRAHSDYAMAWFRQAPGQEREFVAGIGWSGGDTLYADSVRGRFTNSRDNSKNTLYLQMNSLRAEDTAVYYCAARQGQYIYSSMRSDSYDYWGQGTLVTVSS |  |  |  |  |  |  |  | Kd [8]: 0.448 nM; koff [8]: 0.00112 s⁻¹; kon [8]: 2.51e+06 M⁻¹ s⁻¹; Kd [9]: 2.02 nM; koff [9]: 0.00388 s⁻¹; kon [9]: 1.92e+06 M⁻¹ s⁻¹; Kd [10]: 0.15 nM; koff [10]: 0.000332 s⁻¹; kon [10]: 2.22e+06 M⁻¹ s⁻¹
HAS020 (VHH, anti-albumin VHH-His) VHH: QVQLVESGGGLVQAGGSLRLSCAASGRTFGSDAAGWFRQASGKEREFVASISWSGGYTYYADSVKGRFTISSDNVKNTVYLQMNSLTPEDTAVYFCATGNRYSDYRISLVTPSQYEYWGQGTLVTVSH |  |  |  |  |  |  | binds | 
HAS096 (VHH, anti-albumin VHH-His) VHH: QVQLVESGGGLVQAGGSLRLSCAASGRTFGSDAAGWFRQASGKEREFVASISWSGGYTYYADSVKGRFTSSSDNVKNTVYLQMNSLTPEDTAVYFCATVNRYSDYRISLVTPSQYEYWGQGTQVTVSH |  |  |  |  |  |  | binds | 
HAS044 (VHH, anti-albumin VHH-His) VHH: QVQLVESGGGLVQAGGSLRLSCAASGRTFSSYAIGWFRQAPGKAREFVARVSTIAGDTDYADSVKGRFTISRDNAKNTVYLQMNSLKPEDTAVYYCAADSYNVRLVTGEADYWGEGTQVTVSS |  |  |  |  |  |  | binds | 
HAS079 (VHH, anti-albumin VHH-His) VHH: EVQLVESGGGLVQAGDSLRLSCAASGFTFSNYAIGWFRQAPGKAREFVARVSTIAGDTDYANAVKGRFTISRDNAKNTVYLQMNSLKPDDTAVYYCAAESYNVRLVTGEADYWGEGTQVTVSS |  |  |  |  |  |  | binds | 
HAS077 (VHH, anti-albumin VHH-His) VHH: QVQLVESGGGLVQAGGSLRLSCAASGRTFSSYAIGWFRQAPGKAREFVARVSTIAGDTDYADSVKGRFTISRDNAKNTVYLQMNSLKPEDTAVYYCAADSYNVRLGTGEADYWGEGTQVTVSS |  |  |  |  |  |  | binds | 
LCP0115 (VHH, llama anti-C5 VHH, tested as VHH-His fusion; not shown: His-tag) VHH: EVQLVESGGGLVQAGGSLRLSCAASGRTFSGILSPYAVGWFRQAPGKGREFVSTITSGGSAIYTDSVKGRFTLSRDNAKDTVYLQMNSLKPEDTAVYYCAVRTRRYGSNLGEVPQENEYGYWGQGTQVTVSS | 0.309 | 3.48e-05 | 113000 | 0.107 | 1.02e-05 | 95300 |  | 
LCP0095 (VHH, llama anti-C5 VHH, tested as VHH-His fusion; not shown: His-tag) VHH: EVQLVESGGGLVQAGGSLRLSCTASGRTISTTVMAWFRQAPGKEREFVAADHWGDAGTVYADSVKGRFTISRDNAKNTVYLQMNYLKPEDTSVYYCAARPPTYVGTSRDSRAYDYWGQGTQVTVSS | 2.5 | 0.000714 | 286000 | 3.69 | 0.00168 | 456000 |  | 

Continued, in another order:

Kd [5] [nM] | koff [5] [s⁻¹] | kon [5] [M⁻¹ s⁻¹] | Kd [6] [nM] | koff [6] [s⁻¹] | kon [6] [M⁻¹ s⁻¹] | binding result [7] | Binder | other results
 |  |  |  |  |  | binds | HAS080 (VHH, anti-albumin VHH-His) VHH: QVRLAESGGGRVQAGESLRLSCVASGRTFSNDAAGWFREASGKEREFVASISWSGNYTYYADSVKGRFTISEDNVKNTVYLQMTSLKPEDTAVYYCAAGNRYSDYRISLVTPRLYEYWGQGTQVTVSH | 
 |  |  |  |  |  | binds | HAS081 (VHH, anti-albumin VHH-His) VHH: QVQLVESGGGLVQAGGSLRLSCAASGRTFSSDAAGWFRQASGKEREFVAAISWSGNYTYSADSVKGRFTISSDNVKNTVYLQMNSLKPEDTAVYLCAAGNRYSDYRISLVTPSQYEYWGQGTQVTVSH | 
 |  |  |  |  |  | binds | HAS093 (VHH, anti-albumin VHH-His) VHH: QVQLVESGGGLVQAGGSLRLSCAASGRTFGSDAAGWFRQASGKEREFVASISWSGGYTYYADSGKGRFTISSDNVKNTVYLQMNSLTPEDTAVYFCATGNRYSDYRISLVTPSQYDYWGQGTQVTVSH | 
 |  |  |  |  |  | binds | HAS091 (VHH, anti-albumin VHH-His) VHH: QVQLVESGGGLVQAGGSLRLSCAASGRTFGSDAAGWFRQASGKEREFVASISWSGGYTYYADSGTGRFTISSDNVKNTVYLQMNSLTPEDTAVYFCATGNRDSDYRISLVTPSQYEYWGQGTQVTVSH | 
0.195 | 2.22e-05 | 114000 | 0.232 | 2.38e-05 | 103000 |  | LCP0302 (VHH, llama anti-C5 VHH, tested as VHH-His fusion; not shown: His-tag) VHH: EVQLVESGGGLVQAGGSLRLSCAASGRTFSGILSAYAVGWFRQAPGKEREFVSTITSGGSTLSADSVKGRFTLSRDNAKDTVYLQMNSLKPEDTAVYYCAVRTWPYGSNRGEVPTENEYGHWGQGTQVTVSS | 
0.0435 | 9.75e-05 | 2.24e+06 | 0.0922 | 0.000244 | 2.64e+06 |  | LCP0146 (VHH, llama anti-C5 VHH, tested as VHH-His fusion; not shown: His-tag) VHH: EVQLVESGGGLVQAGGSLRLSCAASGRAFSDYAMAWFRQAPGKEREFVAGIGWSGGDTLYADSVRGRFTNSKDNAKNRMSLQMNSLKPEDTAVYYCAARQGQYIYSSMRSDSYDYWGQGTQVTVSS | 
